# The RNAGym collection of RNA variant scans (doi:10.1021/acssynbio.7b00057)
# B1: Pistol ribozyme (parent)
# chain: GGGUCGUUGUUCCAUAAUCGCGUGGAUAUGGCACGCAAGUUUCUACCGGGCACCGUAAAUGUCCGACUGGAGCCGUUCGGGCGGCUAUAAACAGACCUCAGGCCCGAAGCGUGGCGGCACCUGCCGCCGGUGGUAAAAAAGAUCGGAAGAGCACACGUCU
# Variants of: B1
# Test: aptazyme ON/OFF ratio, guanine; higher = stronger switching; co-transcriptional cleavage with and without guanine
row,Variant,aptazyme ON/OFF ratio
1,U7C U8C U11C C12U C13A,1.37
2,U7C U8C U11C C12U C13U,1.43
3,U7C U8C U11C C12U C13G,1.2
4,U7C U8G G9A U10C U11C C13G,1.01
5,U7C U8G G9A U10C U11C C13U,1.02
6,U7C U8G G9A U10C U11C C13A,1.02
7,U7C U8G G9A U10A U11A C12G C13U,1.21
8,U7C U8G G9A U10A U11A C12G C13G,1.21
9,U7C U8G G9A U10A U11A C12G C13A,1.12
10,U7C U8G G9A U10A U11A C12A C13G,1.2
11,U7C U8G G9A U10A U11A C12A C13U,1.21
12,U7C U8G G9A U10A U11A C12A C13A,1.2
13,U7C U8C U11G C12U C13A,1.14
14,U7C U8C U11G C12U C13U,1.22
15,U7C U8C U11G C12U C13G,1.11
16,U7C U8G G9A U10C U11A C12U C13G,1.05
17,U7C U8G G9A U10C U11A C12U C13A,1.07
18,U7C U8G G9A U10C U11A C12U C13U,1.05
19,U7C U8G G9A U10C C13A,1.04
20,U7C U8G G9A U10C C13U,1.92
21,U7C U8G G9A U10C C13G,1.06
22,U7C U8G G9A C12U,1.19
23,U7C U8G G9A C12G,1.29
24,U7C U8G G9A C12A,1.34

row,Variant,aptazyme ON/OFF ratio
1,U7C U8C U10G U11A C12A C13A,1.11
2,U7C U8C U10G U11A C12A C13G,1.12
3,U7C U8C U10G U11A C12A C13U,1.25
4,U7C U8C U10C U11G C12U C13U,1.3
5,U7C U8C U10C U11G C12U C13G,1.23
6,U7C U8C U10C U11G C12U C13A,1.28
7,U7C U8C U11G C12A C13G,1.11
8,U7C U8C U11G C12A C13A,1.14
9,U7C U8C U11G C12A C13U,1.2
10,U7C U8C U11C C12A C13G,1.18
11,U7C U8C U11C C12A C13A,1.3
12,U7C U8C U11C C12A C13U,1.28
13,U7C U8C U11C C12G C13U,1.33
14,U7C U8C U11C C12G C13A,1.4
15,U7C U8C U11C C12G C13G,1.31
16,U7C U8G G9A U10A U11A,1.31
17,U7C U8G G9A U10A U11G,1.33
18,U7C U8G G9A U10A U11C,1.04
19,U7C U8G G9A U10A C12U,1.19
20,U7C U8G G9A U10A C12G,1.18
21,U7C U8G G9A U10A C12A,1.26
22,U7C U8C U10G,1.98
23,U7C U8G G9A U10A C13G,1.05
24,U7C U8G G9A U10A C13A,1.12

row,Variant,aptazyme ON/OFF ratio
1,U7C U8G G9A U10A C13U,1.15
2,U7C U8G G9A U10G C12A C13U,1.36
3,U7C U8G G9A U10G C12A C13A,1.12
4,U7C U8G G9A U10G C12A C13G,1.08
5,U7C U8C U11A C12G C13G,1.12
6,U7C U8C U11A C12G C13U,1.12
7,U7C U8C U11A C12G C13A,1.13
8,U7C U8G C12G C13G,1.08
9,U7C U8G C12G C13U,1.17
10,U7C U8G C12G C13A,1.09
11,U7C U8G G9A C12G C13G,1.12
12,U7C U8G G9A C12G C13A,1.15
13,U7C U8G G9A C12G C13U,1.21
14,U7C U8G G9A U10C U11A C12A,1.15
15,U7C U8G G9A U10C U11A C12U,1.09
16,U7C U8G G9A U10C U11A C12G,1.13
17,U7C U8G G9A U10G C13G,1.16
18,U7C U8G G9A U10G C13A,1.23
19,U7C U8G G9A U10G C13U,1.54
20,U7C U8C U11G C12A,1.35
21,U7C U8C U11G C12U,1.25
22,U7C U8C U11G C12G,1.33
23,U7C U8G G9A U10G U11C C12G,1.29
24,U7C U8G G9A U10G U11C C12A,1.41

row,Variant,aptazyme ON/OFF ratio
1,U7C U8G G9A U10G U11C C12U,1.14
2,U7C U8G G9A U10A C12G C13A,1.11
3,U7C U8G G9A U10A C12G C13U,1.31
4,U7C U8G G9A U10A C12G C13G,1.46
5,U7C U8C U10G C12A C13G,1.08
6,U7C U8C U10G C12A C13U,1.12
7,U7C U8C U10G C12A C13A,1.1
8,U7C U8C U10G U11A C13G,1.14
9,U7C U8C U10G U11A C13A,1.21
10,U7C U8C U10G U11A C13U,1.15
11,U7C U8G G9A U10A U11C C12G C13G,1.34
12,U7C U8G G9A U10A U11C C12G C13A,1.32
13,U7C U8G G9A U10A U11C C12G C13U,1.45
14,U7C U8G,1.35
15,U7C U8C U10G U11A C12U C13A,1.16
16,U7C U8C U10G U11A C12U C13G,1.1
17,U7C U8C U10G U11A C12U C13U,1.21
18,U7C U8C U10G C13U,1.12
19,U7C U8C U10G C13A,1.13
20,U7C U8C U10G C13G,1.08
21,U7C U8C U10G U11G C12U C13U,1.08
22,U7C U8C U10G U11G C12U C13A,1.1
23,U7C U8C U10G U11G C12U C13G,1.12
24,U7C U8G G9A U10G U11A C12A C13G,1.3

row,Variant,aptazyme ON/OFF ratio
1,U7C U8G G9A U10G U11A C12A C13U,1.22
2,U7C U8G G9A U10G U11A C12A C13A,1.18
3,U7C U8G G9A U10C U11G C13U,1.41
4,U7C U8G G9A U10C U11G C13G,1.12
5,U7C U8G G9A U10C U11G C13A,1.28
6,U7C U8C U10C U11G C12G C13U,1.1
7,U7C U8C U10C U11G C12G C13A,1.15
8,U7C U8C U10C U11G C12G C13G,1.13
9,U7C U8C U10G U11C C12U C13U,1.29
10,U7C U8C U10G U11C C12U C13G,1.11
11,U7C U8C U10G U11C C12U C13A,1.2
12,U7C U8G G9A U10G U11A C13G,1.1
13,U7C U8G G9A U10G U11A C13U,1.04
14,U7C U8G G9A U10G U11A C13A,1.09
15,U7C U8G G9A C12U C13A,1.16
16,U7C U8G G9A C12U C13G,1.35
17,U7C U8G G9A C12U C13U,1.22
18,U7C U8G G9A U10C U11C,1.03
19,U7C U8G G9A U10C U11A,1.24
20,U7C U8G G9A U10C U11G,1.23
21,U7C U8G G9A U10A,1.18
22,U7C U8G G9A U10C,3.63
23,U7C U8G G9A U10G,2.11
24,U7C U8C U10G U11A C12G C13G,1.11

row,Variant,aptazyme ON/OFF ratio
1,U7C U8C U10G U11A C12G C13U,1.09
2,U7C U8C U10G U11A C12G C13A,1.08
3,U7C U8G G9A U10C U11A C13G,1.07
4,U7C U8G G9A U10C U11A C13A,1.12
5,U7C U8G G9A U10C U11A C13U,1.09
6,U7C U8G G9A U10A U11C C12G,1.25
7,U7C U8G G9A U10A U11C C12U,1.05
8,U7C U8G G9A U10A U11C C12A,1.21
9,U7C U8G G9A U10A U11A C13U,1.12
10,U7C U8G G9A U10A U11A C13A,1.12
11,U7C U8G G9A U10A U11A C13G,1.07
12,U7C U8C U10C U11G,1.23
13,U7C U8G G9A U10G U11A,1.05
14,U7C U8G G9A U10G U11C,1.06
15,U7C U8C U10G U11C C13G,1.16
16,U7C U8C U10G U11C C13U,1.16
17,U7C U8C U10G U11C C13A,1.37
18,U7C U8G G9A U10G U11A C12U C13A,1.46
19,U7C U8G G9A U10G U11A C12U C13U,1.32
20,U7C U8G G9A U10G U11A C12U C13G,1.36
21,U7C U8G G9A U10C U11G C12U,1.29
22,U7C U8G G9A U10C U11G C12A,1.07
23,U7C U8G G9A U10C U11G C12G,1.22
24,U7C U8C U11C C13G,1.12

row,Variant,aptazyme ON/OFF ratio
1,U7C U8C U11C C13A,1.24
2,U7C U8C U11C C13U,1.3
3,U7C U8G G9A U10C C12U C13G,1.07
4,U7C U8G G9A U10C C12U C13U,1.1
5,U7C U8G G9A U10C C12U C13A,1.08
6,U7C U8C U10G C12U C13U,1.13
7,U7C U8C U10G C12U C13A,1.08
8,U7C U8C U10G C12U C13G,1.1
9,U7C U8C U10G U11A,1.24
10,U7C U8C U10G U11C,1.39
11,U7C U8C U10G U11G,1.49
12,U7C U8G G9A U10G U11A C12G C13G,1.24
13,U7C U8G G9A U10G U11A C12G C13U,1.42
14,U7C U8G G9A U10G U11A C12G C13A,1.26
15,U7C U8G G9A U10A U11G C12G C13G,1.39
16,U7C U8G G9A U10A U11G C12G C13A,1.19
17,U7C U8G G9A U10A U11G C12G C13U,1.33
18,U7C U8G G9A U10A U11A C12A,1.26
19,U7C U8G G9A U10A U11A C12U,1.18
20,U7C U8G G9A U10A U11A C12G,1.1
21,U7C U8C U10G U11C C12A,1.41
22,U7C U8C U10G U11C C12G,1.4
23,U7C U8C U10G U11C C12U,1.22
